B3: Escherichia coli inducible lysine decarboxylase LdcI (enzyme, E. coli)
chain: MNVIAILNHMGVYFKEEPIRELHRALERLNFQIVYPNDRDDLLKLIENNARLCGVIFDWDKYNLELCEEISKMNENLPLYAFANTYSTLDVSLNDLRLQISFFEYALGAAEDIANKIKQTTDEYINTILPPLTKALFKYVREGKYTFCTPGHMGGTAFQKSPVGSLFYDFFGPNTMKSDISISVSELGSLLDHSGPHKEAEQYIARVFNADRSYMVTNGTSTANKIVGMYSAPAGSTILIDRNCHKSLTHLMMMSDVTPIYFRPTRNAYGILGGIPQSEFQHATIAKRVKETPNATWPVHAVITNSTYDGLLYNTDFIKKTLDVKSIHFDSAWVPYTNFSPIYEGKCGMSGGRVEGKVIYETQSTHKLLAAFSQASMIHVKGDVNEETFNEAYMMHTTTSPHYGIVASTETAAAMMKGNAGKRLINGSIERAIKFRKEIKRLRTESDGWFFDVWQPDHIDTTECWPLRSDSTWHGFKNIDNEHMYLDPIKVTLLTPGMEKDGTMSDFGIPASIVAKYLDEHGIVVEKTGPYNLLFLFSIGIDKTKALSLLRALTDFKRAFDLNLRVKNMLPSLYREDPEFYENMRIQELAQNIHKLIVHHNLPDLMYRAFEVLPTMVMTPYAAFQKELHGMTEEVYLDEMVGRINANMILPYPPGVPLVMPGEMITEESRPVLEFLQMLCEIGAHYPGFETDIHGAYRQADGRYTVKVLKEESKK
notes: LdcI (CadA), inducible lysine decarboxylase of E. coli; wing domain 1-129, core domain 130-563, CTD 564-715; Decamer of two pentameric rings; The whole enzyme (715 residues) is likely; PLP cofactor was in the buffers; also called CadA; LdcIa (at pH 6.2); copies: 10
B4: Escherichia coli AAA+ ATPase RavA (enzyme)
chain: not shown
notes: RavA, AAA+ ATPase of E. coli; It was mixed in the presence of 2 mM ADP and 10 mM MgCl2

How the values were obtained:
[1] = target: the molecule itself; assay: cryo-EM structure; LdcC alone, 2 mg/ml, 25 mM HEPES, 100 mM NaCl, 0.2 mM PLP, 1 mM DTT, pH 7.2 (results say pH 7.5); no ppGpp
[2] = target: the molecule itself; assay: not stated; purified chimeras alone; decamers 'visually indistinguishable from the wild-type proteins'
[3] = target: the molecule itself; assay: cryo-EM structure; LdcI alone, 2 mg/ml, 25 mM MES, 100 mM NaCl, 0.2 mM PLP, 1 mM DTT, pH 6.2; no ppGpp
[4] = target: B3; assay: negative stain EM; 0.4 mg/ml RavA mixed with 0.3 mg/ml LdcI, LdcC, LdcCI or LdcIC; 2 mM ADP, 10 mM MgCl2, 20 mM Hepes, 150 mM NaCl, pH 7.4; 10 min at room temperature; 2% uranyl acetate; settings: both partners purified
[5] = target: B4; assay: as above; settings: both partners purified

B1: Escherichia coli biosynthetic lysine decarboxylase LdcC (enzyme, E. coli)
chain: MNIIAIMGPHGVFYKDEPIKELESALVAQGFQIIWPQNSVDLLKFIEHNPRICGVIFDWDEYSLDLCSDINQLNEYLPLYAFINTHSTMDVSVQDMRMALWFFEYALGQAEDIAIRMRQYTDEYLDNITPPFTKALFTYVKERKYTFCTPGHMGGTAYQKSPVGCLFYDFFGGNTLKADVSISVTELGSLLDHTGPHLEAEEYIARTFGAEQSYIVTNGTSTSNKIVGMYAAPSGSTLLIDRNCHKSLAHLLMMNDVVPVWLKPTRNALGILGGIPRREFTRDSIEEKVAATTQAQWPVHAVITNSTYDGLLYNTDWIKQTLDVPSIHFDSAWVPYTHFHPIYQGKSGMSGERVAGKVIFETQSTHKMLAALSQASLIHIKGEYDEEAFNEAFMMHTTTSPSYPIVASVETAAAMLRGNPGKRLINRSVERALHFRKEVQRLREESDGWFFDIWQPPQVDEAECWPVAPGEQWHGFNDADADHMFLDPVKVTILTPGMDEQGNMSEEGIPAALVAKFLDERGIVVEKTGPYNLLFLFSIGIDKTKAMGLLRGLTEFKRSYDLNLRIKNMLPDLYAEDPDFYRNMRIQDLAQGIHKLIRKHDLPGLMLRAFDTLPEMIMTPHQAWQRQIKGEVETIALEQLVGRVSANMILPYPPGVPLLMPGEMLTKESRTVLDFLLMLCSVGQHYPGFETDIHGAKQDEDGVYRVRVLK
notes: LdcC, biosynthetic lysine decarboxylase of E. coli; Decamer; PLP cofactor was in the buffers; also called constitutive lysine decarboxylase; copies: 10
[1]
  stoichiometry N: 10

B2: LdcIC chimera (LdcI with the C-terminal β-sheet of LdcC) (enzyme, E. coli, UniProt P0A9H3 1-630, looked up)
chain: MNVIAILNHMGVYFKEEPIRELHRALERLNFQIVYPNDRDDLLKLIENNARLCGVIFDWDKYNLELCEEISKMNENLPLYAFANTYSTLDVSLNDLRLQISFFEYALGAAEDIANKIKQTTDEYINTILPPLTKALFKYVREGKYTFCTPGHMGGTAFQKSPVGSLFYDFFGPNTMKSDISISVSELGSLLDHSGPHKEAEQYIARVFNADRSYMVTNGTSTANKIVGMYSAPAGSTILIDRNCHKSLTHLMMMSDVTPIYFRPTRNAYGILGGIPQSEFQHATIAKRVKETPNATWPVHAVITNSTYDGLLYNTDFIKKTLDVKSIHFDSAWVPYTNFSPIYEGKCGMSGGRVEGKVIYETQSTHKLLAAFSQASMIHVKGDVNEETFNEAYMMHTTTSPHYGIVASTETAAAMMKGNAGKRLINGSIERAIKFRKEIKRLRTESDGWFFDVWQPDHIDTTECWPLRSDSTWHGFKNIDNEHMYLDPIKVTLLTPGMEKDGTMSDFGIPASIVAKYLDEHGIVVEKTGPYNLLFLFSIGIDKTKALSLLRALTDFKRAFDLNLRVKNMLPSLYREDPEFYENMRIQELAQNIHKLIVHHNLPDLMYRAFEVLPTMVMTPYAAFQKELHGEVETIALEQLVGRINANMILPYPPGVPLVMPGEMITEESRPVLEFLQMLCEIGAHYPGFETDIHGAKQDEDGVYRVRVLKMAG
notes: E. coli LdcI up to the first exchanged stretch; E. coli LdcC, first strand region of the C-terminal β-sheet; E. coli LdcI between the two exchanged stretches; E. coli LdcC from 697 to the C-terminus, second strand region of the C-terminal β-sheet; Synthetic ldcIC gene of 2148 bp (GenScript) in the pET-TEV vector; source: E. coli Rosetta 2 (DE3), purified (Ni-NTA, TEV cleavage, second Ni-NTA, …)
[2]
  stoichiometry N: 10

## B3
[3]
  stoichiometry N: 10

## B4
[4]
  binding result: binds

B5: LdcCI chimera (LdcC with the C-terminal β-sheet of LdcI) (enzyme, E. coli, UniProt P52095 1-630, looked up)
chain: MNIIAIMGPHGVFYKDEPIKELESALVAQGFQIIWPQNSVDLLKFIEHNPRICGVIFDWDEYSLDLCSDINQLNEYLPLYAFINTHSTMDVSVQDMRMALWFFEYALGQAEDIAIRMRQYTDEYLDNITPPFTKALFTYVKERKYTFCTPGHMGGTAYQKSPVGCLFYDFFGGNTLKADVSISVTELGSLLDHTGPHLEAEEYIARTFGAEQSYIVTNGTSTSNKIVGMYAAPSGSTLLIDRNCHKSLAHLLMMNDVVPVWLKPTRNALGILGGIPRREFTRDSIEEKVAATTQAQWPVHAVITNSTYDGLLYNTDWIKQTLDVPSIHFDSAWVPYTHFHPIYQGKSGMSGERVAGKVIFETQSTHKMLAALSQASLIHIKGEYDEEAFNEAFMMHTTTSPSYPIVASVETAAAMLRGNPGKRLINRSVERALHFRKEVQRLREESDGWFFDIWQPPQVDEAECWPVAPGEQWHGFNDADADHMFLDPVKVTILTPGMDEQGNMSEEGIPAALVAKFLDERGIVVEKTGPYNLLFLFSIGIDKTKAMGLLRGLTEFKRSYDLNLRIKNMLPDLYAEDPDFYRNMRIQDLAQGIHKLIRKHDLPGLMLRAFDTLPEMIMTPHQAWQRQIKGMTEEVYLDEMVGRVSANMILPYPPGVPLLMPGEMLTKESRTVLDFLLMLCSVGQHYPGFETDIHGAYRQADGRYTVKVLKEESKK
notes: E. coli LdcC up to the first exchanged stretch; E. coli LdcI, first strand region of the C-terminal β-sheet; E. coli LdcC between the two exchanged stretches; E. coli LdcI from 697 to the C-terminus, second strand region of the C-terminal β-sheet; Synthetic ldcCI gene of 2154 bp (GenScript) in the pET-TEV vector; source: E. coli Rosetta 2 (DE3), purified (Ni-NTA, TEV cleavage, second Ni-NTA, …)
[5]
  binding result: binds
[2]
  stoichiometry N: 10

From article PMC4832331, “Structural insights into the Escherichia coli lysine decarboxylases and molecular determinants of interaction with the AAA+ ATPase RavA” (Scientific Reports, 2016)
